± gives the uncertainty stated by the source.
B1: Far upstream element-binding protein 3, residues 75 to 150; numbered along this chain, Q96I24 (parent)
chain: RTVITEEFKVPDKMVGFIIGRGGEQISRIQAESGCKIQIASESSGIPERPCVLTGTPESIEQAKRLLGQIVDRCRN

Variants of: B1
Assay: abundance fitness (aPCA) (normalised: wild type 0, dead -1); higher = more abundant; growth selection in yeast, the domain comes from the species named
Conditions: Homo sapiens

Abundance fitness, by site and new letter:
V52: S -0.005 ± 0.036 | P -0.931 ± 0.069 | M -0.039 ± 0.046 | R -0.072 ± 0.029 | F -0.107 ± 0.061 | E -0.073 ± 0.037 | I -0.034 ± 0.057 | H -0.064 ± 0.061 | D -0.16 ± 0.049 | Y -0.115 ± 0.056 | T -0.044 ± 0.038 | L -0.023 ± 0.033 | Q 0.043 ± 0.043 | N -0.133 ± 0.056 | C -0.093 ± 0.051 | A -0.029 ± 0.033
C51: F -0.009 ± 0.061 | T -0.108 ± 0.043 | E -0.924 ± 0.06 | P -0.671 ± 0.066 | H -0.475 ± 0.092 | R -0.926 ± 0.042 | W -0.147 ± 0.034 | M -0.068 ± 0.043 | Y -0.311 ± 0.065 | D -0.633 ± 0.067 | S -0.366 ± 0.04 | G -0.206 ± 0.028 | N -0.634 ± 0.091 | A -0.075 ± 0.036 | L -0.062 ± 0.035 | Q -0.688 ± 0.066 | V -0.009 ± 0.033
R49: Q -0.081 ± 0.041 | D -0.251 ± 0.056 | T -0.044 ± 0.046 | A -0.173 ± 0.037 | F -0.195 ± 0.058 | W -0.271 ± 0.034 | P -0.182 ± 0.048 | S -0.141 ± 0.036 | L -0.19 ± 0.032 | N -0.155 ± 0.059 | V -0.052 ± 0.03 | G -0.129 ± 0.026 | I -0.141 ± 0.07 | C -0.091 ± 0.049 | K -0.099 ± 0.047 | E -0.159 ± 0.037 | M -0.169 ± 0.039
L53: E -1.05 ± 0.073 | F -0.354 ± 0.084 | A -0.473 ± 0.045 | C -0.191 ± 0.062 | D -0.96 ± 0.13
G45: K -0.093 ± 0.037 | D -0.011 ± 0.041 | A -0.041 ± 0.029 | Y -0.168 ± 0.051 | C -0.094 ± 0.037 | W -0.15 ± 0.032 | I -0.158 ± 0.06 | S -0.051 ± 0.032 | P -0.067 ± 0.037 | L -0.124 ± 0.029 | R -0.055 ± 0.026 | E -0.052 ± 0.032 | M -0.101 ± 0.037 | N -0.01 ± 0.068 | H -0.065 ± 0.057 | Q -0.046 ± 0.038
C35: R -0.732 ± 0.035 | E -0.539 ± 0.044 | G -0.663 ± 0.031 | L -0.763 ± 0.046 | H -0.585 ± 0.12 | N -0.539 ± 0.11 | P -0.758 ± 0.07 | Q -0.588 ± 0.074 | F -1.06 ± 0.12 | K -0.608 ± 0.054 | I -0.397 ± 0.082 | V -0.157 ± 0.032 | A -0.025 ± 0.034 | Y -0.578 ± 0.12 | W -0.895 ± 0.054 | S -0.276 ± 0.039
A40: H -0.032 ± 0.058 | D 0.002 ± 0.043 | Y -0.112 ± 0.062 | G -0.018 ± 0.025 | I -0.036 ± 0.07 | K -0.024 ± 0.037 | P -0.024 ± 0.04 | L -0.038 ± 0.03 | F 0.013 ± 0.057 | M -0.063 ± 0.04 | Q 0.044 ± 0.039 | V -0.094 ± 0.029 | T -0.04 ± 0.038 | W -0.1 ± 0.033 | N -0.076 ± 0.057
S41: P -0.027 ± 0.041 | Y -0.164 ± 0.069 | I -0.092 ± 0.07 | W -0.159 ± 0.033 | Q 0.012 ± 0.041 | H -0.099 ± 0.089 | R 0.032 ± 0.027 | F -0.176 ± 0.059 | T -0.02 ± 0.038 | C -0.026 ± 0.044 | V -0.089 ± 0.03 | K 0.058 ± 0.04 | G -0.015 ± 0.026 | D -0.06 ± 0.044 | A -0.035 ± 0.031 | N 0.022 ± 0.057
K36: G -0.112 ± 0.029 | P -0.811 ± 0.063 | V -0.101 ± 0.032 | Y -0.14 ± 0.059 | I -0.112 ± 0.061 | C -0.116 ± 0.049 | T -0.051 ± 0.04 | D 0.001 ± 0.054 | Q -0.065 ± 0.045 | W -0.18 ± 0.037 | A -0.065 ± 0.034 | L -0.057 ± 0.035 | E -0.02 ± 0.039 | F -0.234 ± 0.07 | S -0.034 ± 0.035 | R -0.027 ± 0.029 | M -0.066 ± 0.042
S33: P -0.728 ± 0.06 | R -0.827 ± 0.036 | V -0.247 ± 0.033 | T -0.063 ± 0.042 | H -0.716 ± 0.087 | M -0.646 ± 0.052 | Q -0.732 ± 0.057 | N -0.685 ± 0.075 | K -0.787 ± 0.081 | G -0.747 ± 0.032 | F -0.591 ± 0.072 | E -0.641 ± 0.048 | I -0.358 ± 0.088
S44: T -0.015 ± 0.039 | R -0.046 ± 0.028 | G -0.021 ± 0.027 | Y -0.086 ± 0.067 | N -0.053 ± 0.054 | V -0.05 ± 0.031 | F -0.06 ± 0.062 | L -0.017 ± 0.034 | E -0.009 ± 0.034 | H -0.013 ± 0.066 | I -0.07 ± 0.086 | P -0.058 ± 0.043 | K -0.005 ± 0.042 | Q 0.006 ± 0.044
I37: D -0.528 ± 0.051 | Y -0.799 ± 0.088 | G -0.664 ± 0.028 | R -0.73 ± 0.03 | K -0.522 ± 0.046

— the Human Domainome abundance scans (Beltran et al. 2025)
